From PMC6821195, “The internal interaction in RBBP5 regulates assembly and activity of MLL1 methyltransferase complex” (Nucleic Acids Research, 2019) come the findings set out here.

Where a chain is given by its changes, count along the chain named. Names and notes keep the numbering of the source. Where two headings read alike, the source gives them in different places.

T1: RBBP5 WD40 propeller (residues 2–333), Q15291
T1 chain: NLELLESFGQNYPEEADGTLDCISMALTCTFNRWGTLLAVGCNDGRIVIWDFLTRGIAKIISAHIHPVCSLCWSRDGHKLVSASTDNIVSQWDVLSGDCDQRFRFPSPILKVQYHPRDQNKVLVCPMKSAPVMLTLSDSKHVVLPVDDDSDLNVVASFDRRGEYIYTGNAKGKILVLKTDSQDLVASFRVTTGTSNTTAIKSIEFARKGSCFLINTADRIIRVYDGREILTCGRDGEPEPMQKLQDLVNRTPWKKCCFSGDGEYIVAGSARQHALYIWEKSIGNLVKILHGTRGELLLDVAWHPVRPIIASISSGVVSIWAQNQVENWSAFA

B1: RBBP5 390-467 (protein)
chain: DEELEDSKALLYLPIAPEVEDPEENPYGPPPDAVQTSLMDEGASSEKKRQSSADGSQPPKKKPKTTNIELQGVPNDEV
B2: RBBP5 404-538 (protein)
chain: IAPEVEDPEENPYGPPPDAVQTSLMDEGASSEKKRQSSADGSQPPKKKPKTTNIELQGVPNDEVHPLLGVKGDGKSKKKQAGRPKGSKGKEKDSPFKPKLYKGDRGLPLEGSAKGKVQAELSQPLTAGGAISELL
B3: RBBP5_(390–480d) (C-terminal distal region 390–480 with the 422–443 loop deletion) (domain or fragment, human, UniProt Q15291 390-480, looked up)
chain: DEELEDSKALLYLPIAPEVEDPEENPYGPPPDGSQPPKKKPKTTNIELQGVPNDEVHPLLGVKGDGKSK
notes: RBBP5, human, residues 390-480 with the loop 422-443 deleted; also called RBBP5_(CTDM); C-Terminal Distal Minimized; source: Rosetta cells, purified (Ni-NTA, on-beads Ulp1 digestion, SEC)
B4: RBBP5390-480d I457/L459A (protein)
chain: B3 chain with I46A, L48A
B5: RBBP5_(390–480d) (C-terminal distal region 390–480 with the 422–443 loop deletion), Q15291 L399A; L400A; I457A; L459A (protein)
chain: B3 chain with L10A, L11A, I46A, L48A
B6: RBBP5_(CTDM) (RBBP5_(390–480d)) L400A (domain or fragment, human, UniProt Q15291 390-480, looked up)
chain: B3 chain with L11A
notes: RBBP5, human, residues 390-480 with the loop 422-443 deleted, L400A; source: Rosetta cells, purified (Ni-NTA, on-beads Ulp1 digestion, SEC)
B7: RBBP5_(CTDM) (RBBP5_(390–480d)) L459A (domain or fragment, human, UniProt Q15291 390-480, looked up)
chain: B3 chain with L48A
notes: RBBP5, human, residues 390-480 with the loop 422-443 deleted, L459A; source: Rosetta cells, purified (Ni-NTA, on-beads Ulp1 digestion, SEC)
B8: RBBP5_(CTDM) (RBBP5_(390–480d)) I457A (domain or fragment, human, UniProt Q15291 390-480, looked up)
chain: B3 chain with I46A
notes: RBBP5, human, residues 390-480 with the loop 422-443 deleted, I457A; source: Rosetta cells, purified (Ni-NTA, on-beads Ulp1 digestion, SEC)
B9: RBBP5_(CTDM) (RBBP5_(390–480d)) L470A (domain or fragment, human, UniProt Q15291 390-480, looked up)
chain: B3 chain with L59A
notes: RBBP5, human, residues 390-480 with the loop 422-443 deleted, L470A; source: Rosetta cells, purified (Ni-NTA, on-beads Ulp1 digestion, SEC)
B10: RBBP5_(CTDM) (RBBP5_(390–480d)) L399A (domain or fragment, human, UniProt Q15291 390-480, looked up)
chain: B3 chain with L10A
notes: RBBP5, human, residues 390-480 with the loop 422-443 deleted, L399A; source: Rosetta cells, purified (Ni-NTA, on-beads Ulp1 digestion, SEC)
B11: RBBP5_(393–480) construct (domain or fragment, human, UniProt Q15291 393-480, looked up)
chain: LEDSKALLYLPIAPEVEDPEENPYGPPPDAVQTSLMDEGASSEKKRQSSADGSQPPKKKPKTTNIELQGVPNDEVHPLLGVKGDGKSK
notes: RBBP5, human, residues 393-480; source: Rosetta cells, purified (Ni-NTA, on-beads Ulp1 digestion, SEC)
B12: RBBP5 381-480 (protein)
chain: DPIAAFCSSDEELEDSKALLYLPIAPEVEDPEENPYGPPPDAVQTSLMDEGASSEKKRQSSADGSQPPKKKPKTTNIELQGVPNDEVHPLLGVKGDGKSK
B13: RBBP5 C-terminal construct (390–480) (domain or fragment, human, UniProt Q15291 390-480, looked up)
chain: DEELEDSKALLYLPIAPEVEDPEENPYGPPPDAVQTSLMDEGASSEKKRQSSADGSQPPKKKPKTTNIELQGVPNDEVHPLLGVKGDGKSK
notes: RBBP5, human, residues 390-480; also called RBBP5_(390–480); source: Rosetta cells, purified (Ni-NTA, on-beads Ulp1 digestion, SEC)
B14: RBBP5 WD40 propeller (residues 2–333) (domain or fragment)
chain: T1 chain
B15: RBBP5 390-474 (protein)
chain: DEELEDSKALLYLPIAPEVEDPEENPYGPPPDAVQTSLMDEGASSEKKRQSSADGSQPPKKKPKTTNIELQGVPNDEVHPLLGVK
B16: RBBP5 C-terminal distal region (residues 381–538) (domain or fragment, human, UniProt Q15291 381-538, looked up)
chain: DPIAAFCSSDEELEDSKALLYLPIAPEVEDPEENPYGPPPDAVQTSLMDEGASSEKKRQSSADGSQPPKKKPKTTNIELQGVPNDEVHPLLGVKGDGKSKKKQAGRPKGSKGKEKDSPFKPKLYKGDRGLPLEGSAKGKVQAELSQPLTAGGAISELL
notes: also called RBBP5CTD; source: Rosetta cells, purified (Ni-NTA, on-beads Ulp1 digestion, SEC)

In data set [1] the test system is RBBP5 full-length (Homo sapiens). Briefly: fluorescence polarization. To be noted: FP: 20 mM HEPES pH 7.4, 150 mM NaCl, 0.1% BSA, 0.1 uM DNA, 25 C, 30 min; EMSA: 20 mM Tris-HCl pH 8.0, 150 mM NaCl, 10% glycerol, 0.1 uM nucleosome, on ice 1 h ….
Data set [2] relates to RBBP5 CTD3 (Homo sapiens). Briefly: fluorescence polarization. As to conditions: FP: 20 mM HEPES pH 7.4, 150 mM NaCl, 0.1% BSA, 0.1 uM DNA, 25 C, 30 min; EMSA: 20 mM Tris-HCl pH 8.0, 150 mM NaCl, 10% glycerol, 0.1 uM nucleosome, on ice 1 h ….
Data set [3] has as its system RBBP5 2-325 (Homo sapiens). Briefly: fluorescence polarization. As to conditions: FP: 20 mM HEPES pH 7.4, 150 mM NaCl, 0.1% BSA, 0.1 uM DNA, 25 C, 30 min; EMSA: 20 mM Tris-HCl pH 8.0, 150 mM NaCl, 10% glycerol, 0.1 uM nucleosome, on ice 1 h ….
In data set [4] the target is B14. Briefly: ITC.
Data set [5] has as its target T2, RBBP5 WD40 propeller with residues 10–325 (RBBP5_(10–325)) (human, UniProt Q15291 10-325, selenomethionine (Se-Met derivative protein)).
T2 construct: RBBP5, human, residues 10-325 (WD40 propeller); native and Se-Met complexes were both crystallised; the solved dataset is of the Se-Met crystal; also called SeMet RBBP5_(10–325); source: Rosetta cells (Se-Met derivative grown in M9 minimal media), purified (Ni-NTA, on-beads Ulp1 digestion, SEC)
Description: crystal structure; RBBP5_(10–325) and RBBP5_(390–480d) mixed at 1:2 and purified by SEC; crystals in 0.1 M HEPES-Na pH 7.5, 2% PEG 400, 2.0 M ammonium sulfate, 16°C; Se-Met SAD, 1.8 Å. As to conditions: both partners purified.

The target of data set [6] is T3, RBBP5 WD40 propeller (residues 2–333) (human, UniProt Q15291 2-333).
T3 construct: source: Rosetta cells, purified (Ni-NTA, on-beads Ulp1 digestion, SEC)
Briefly: ITC; RBBP5 C-terminal constructs, RBBP5_(390–480d) or its mutants (1 mM) injected into 0.1 mM RBBP5_(2–333); 300 mM NaCl, 25 mM Tris–HCl pH 8.0; 20°C; one-site model. To be noted: both partners purified.

In data set [7] the target is B14. Briefly: ITC.
The target in data set [8] is T1, RBBP5 WD40 propeller (residues 2–333), …. Briefly: ITC. As to conditions: chain shown with the change; 25mM Tris–HCl, 300 mM NaCl, pH 8.0.
Data set [9] concerns the target T4, RBBP5_(390–480d) (C-terminal distal region 390–480 with the 422–443 loop deletion) (human, UniProt Q15291 390-480, 422–443 loop deletion). Briefly: ITC.
In data set [10] the target is T4, RBBP5_(390–480d) (C-terminal distal …). Description: ITC. The source holds these as a separate data set.
The target in data set [11] is B14. Briefly: ITC; 800 mM NaCl.
In data set [12] the target is T3, RBBP5 WD40 propeller (residues 2–333). Briefly: ITC; RBBP5_(381–538) (1 mM) titrated into 0.1 mM RBBP5_(2–333); 150 mM NaCl, 25 mM Tris–HCl pH 8.0 (300 and 800 mM NaCl also tested); 20°C; one-site model. As to conditions: both partners purified.
Data set [13] has as its target B14. Description: ITC; 300 mM NaCl.

Turning to FAM-labelled 167-bp dsDNA, the Kd came to 11.5 µM in [1], 13.3 µM in [2] and 35.1 µM in data set [3].

B1: the Kd in data set [4] was found to be 17.3 µM.

As to B2, the Kd in data set [4] is 59.8 µM.

On to B3, for which the binding result in [5] and in [6] was “binds” in each case.

In [7], B4 came in with a Kd of 108 µM.

As to B5, the Kd in data set [8] was 369 µM.

With B6, in data set [6], the Kd was roughly 70 µM and the “fold decrease in affinity against wild-type RBBP5_(CTDM)” value was roughly 13 fold.

For B7, the binding result in data set [6] is reported as “binds”.

As for B8, the binding result in data set [6] is reported as “binds”.

As for B9, the binding result in data set [6] is “binds”. This molecule returned a Kd in data set [8] of 19.1 µM.

As for B10, in [6], the Kd was roughly 70 µM and the “fold decrease in affinity against wild-type RBBP5_(CTDM)” value is roughly 13 fold.

Consider B11, for which the binding result in data set [6] was “binds”. In data set [4], this molecule had a Kd of 20.3 µM.

B12 had a Kd in data set [4] of 9.6 µM.

In the case of B13, the binding result in data set [6] is listed as “binds”. In [4], this molecule registered a Kd of 7.5 µM.

As to B14, the Kd in [9] came to 5.2 µM; in data set [10], 4.3 µM.

Molecule B15 displayed a dissociation constant Kd in data set [4] of 11.7 µM.

As for B16, the Kd in data set [11] is 24.6 µM; in [4], 9.7 µM; in [12], 6.8 µM; in data set [13], 9.7 µM.
